The values that follow come from patent US20260207766A1 (Bristol-Myers Squibb, published 2026).

Assay [1] addresses T1, full-length human CEACAM5 (recombinant, internally generated) (human, UniProt P06731 35-685, limits assumed).
T1 construct: Printed only as 'full-length'; also called Full-length huCEACAM5; biotinylated human CEACAM5
T1 sequence: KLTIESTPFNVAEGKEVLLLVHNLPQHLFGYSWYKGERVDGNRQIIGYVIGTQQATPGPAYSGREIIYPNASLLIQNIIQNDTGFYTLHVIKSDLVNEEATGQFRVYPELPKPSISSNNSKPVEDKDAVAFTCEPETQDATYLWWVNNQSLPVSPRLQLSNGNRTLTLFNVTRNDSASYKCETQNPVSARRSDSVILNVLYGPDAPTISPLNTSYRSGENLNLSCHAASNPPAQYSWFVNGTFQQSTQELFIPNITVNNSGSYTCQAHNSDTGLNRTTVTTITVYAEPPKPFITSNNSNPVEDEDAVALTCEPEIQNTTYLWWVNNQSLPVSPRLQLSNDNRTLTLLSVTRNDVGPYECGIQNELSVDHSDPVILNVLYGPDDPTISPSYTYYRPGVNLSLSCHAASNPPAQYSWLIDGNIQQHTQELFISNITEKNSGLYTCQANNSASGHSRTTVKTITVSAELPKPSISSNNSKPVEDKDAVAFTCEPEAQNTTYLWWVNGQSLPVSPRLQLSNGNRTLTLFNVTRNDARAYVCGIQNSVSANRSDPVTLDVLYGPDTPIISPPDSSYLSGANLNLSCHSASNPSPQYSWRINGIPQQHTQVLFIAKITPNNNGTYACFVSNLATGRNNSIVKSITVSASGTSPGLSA
Nature of the assay: SPR Biacore, mAb captured on anti-human Fc, full-length antigen analyte, 1:1 fit. From the text: The BIACORE® instrument was primed with 1×HBSP+ running buffer (Cytiva catalog no. BR100671). The CM5 chip (Cytiva catalog no. 29149604) was equilibrated to room temperature, and the BIACORE® instrument was re-primed. A human antibody Fc capture kit (Cytiva catalog no. 29234600) was utilized for this analysis. The human antibody Fc capture reagent was immobilized to both flow cells in all 8 flow channels of the CM5 chip via amine-coupling using the following conditions. Immobilization was performed at a temperature of 25° C. The anti-human Fc capture reagent was diluted to a concentration of 25 μg/mL in acetate pH5 buffer. The chip surface was activated by injecting a mixture of 1-ethyl-3-(-3-dimethylaminopropyl) carbodiimide hydrochloride (EDC) and N-hydroxy succinimide (NHS) for 420 seconds at a rate of 10 microliters per minute (uL/min). A concentration (25 ug/mL) of anti-human Fc capture reagent was then injected on the surface for 420 seconds at a rate of 10 uL/min. The remaining chip surface was blocked by injecting ethanolamine for 420 seconds at a rate of 10 uL/min.
The SPR kinetics against full-length human and cyno CEACAM5 were set up as follows. The antibody capture was performed by diluting the antibodies to a concentration of 10 nM in HBSP+ buffer. The 10 nM mAbs were captured for 20 seconds at 5 uL/min to achieve capture levels of approximately 100 RU. […] The association rate was 180 seconds at 30 uL/min. The dissociation rate was 600 seconds at 30 uL/min. Regeneration was performed using two injections of 3M magnesium chloride MgCl₂ for 30 seconds at 30 uL/min. A data fit was performed using a 1:1 binding model with global Rmax. Rmax reflects the maximal response when all ligand is occupied.

Another assay has as its target T2, human CEACAM5 on cells (human, UniProt P06731 35-685).
T2 sequence: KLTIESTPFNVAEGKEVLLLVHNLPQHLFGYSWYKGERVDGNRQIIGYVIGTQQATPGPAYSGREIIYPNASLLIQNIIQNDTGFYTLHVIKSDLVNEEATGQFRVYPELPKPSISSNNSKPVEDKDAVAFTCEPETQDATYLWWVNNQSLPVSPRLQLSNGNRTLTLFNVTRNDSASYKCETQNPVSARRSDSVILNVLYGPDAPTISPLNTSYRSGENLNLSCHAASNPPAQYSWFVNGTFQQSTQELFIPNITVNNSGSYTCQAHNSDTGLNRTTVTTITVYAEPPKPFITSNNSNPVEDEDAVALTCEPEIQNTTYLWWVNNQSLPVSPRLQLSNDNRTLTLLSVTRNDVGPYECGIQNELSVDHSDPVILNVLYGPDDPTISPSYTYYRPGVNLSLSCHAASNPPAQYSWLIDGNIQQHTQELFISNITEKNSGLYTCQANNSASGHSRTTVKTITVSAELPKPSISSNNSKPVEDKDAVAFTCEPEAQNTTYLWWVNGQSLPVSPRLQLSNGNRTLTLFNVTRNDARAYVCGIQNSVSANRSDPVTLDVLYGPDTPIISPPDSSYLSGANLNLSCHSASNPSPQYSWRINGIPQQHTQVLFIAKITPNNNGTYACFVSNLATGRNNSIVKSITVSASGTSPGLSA
Briefly: cell-based or functional assay.

B1: MBP004 (antibody, V domains shown)
VH: QVQLVESGGGVVQPGRSLRLSCAASGITFSSHGMHWVRQAPGKGLEWVTFISYDGSYKSYVDSVKGRFTISRDNSKNTLYLQMNSLRAEDTAVYYCATGLTGTGAFDIWGQGTMVTVSS
VL: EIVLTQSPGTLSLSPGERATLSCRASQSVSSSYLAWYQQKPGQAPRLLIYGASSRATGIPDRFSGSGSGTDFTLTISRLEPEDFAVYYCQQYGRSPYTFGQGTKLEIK
Regarding B1, in assay [1], the Kd is 17.3 nM, the koff stood at 0.00131 s⁻¹ and the kon stood at 76000 M⁻¹ s⁻¹. In addition, in the assay with human CEACAM5 on cells, the “Ls174T 5-day cytotoxicity (AUC)” value turned out to be 865 and the “MKN45 5-day cytotoxicity (AUC)” value worked out at 2380.

B2: MBP009 (antibody, IgG1, V domains shown)
VH: QVQLVESGGGVVQPGRSLRLSCAASGIYFSSHGMHWVRQAPGKGLEWVTFISYDGSYKSYVDSVKGRFTISRDNSKNTLYLQMNSLRAEDTAVYYCATGLTGTGAFDIWGQGTMVTVSS
VL: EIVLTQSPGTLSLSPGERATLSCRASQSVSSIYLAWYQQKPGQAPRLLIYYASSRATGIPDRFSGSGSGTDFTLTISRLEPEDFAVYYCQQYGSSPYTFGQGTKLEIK
On to B2, for which, in assay [1], the Kd was determined as 2.78 nM, the koff amounted to 0.00048 s⁻¹ and the kon was determined as 172000 M⁻¹ s⁻¹. Further, in the assay with human CEACAM5 on cells, the “Ls174T 5-day cytotoxicity (AUC)” value worked out at 1040 and the “MKN45 5-day cytotoxicity (AUC)” value is 2200.

B3: MBP006 (antibody, V domains shown)
VH: QVQLVESGGGVVQPGRSLRLSCAASGITFSSHGMHWVRQAPGKGLEWVTFISYDGSYISYVDSVKGRFTISRDNSKNTLYLQMNSLRAEDTAVYYCATGLTGTGANDIWGQGTMVTVSS
VL: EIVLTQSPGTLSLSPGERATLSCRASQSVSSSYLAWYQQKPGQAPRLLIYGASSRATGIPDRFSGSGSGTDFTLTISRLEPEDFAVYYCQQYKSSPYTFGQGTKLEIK
As to B3, in assay [1], the Kd came out at 6.03 nM, the dissociation rate constant (koff) is 0.000513 s⁻¹ and the kon worked out at 85100 M⁻¹ s⁻¹. In addition, in the assay with human CEACAM5 on cells, the “Ls174T 5-day cytotoxicity (AUC)” value stood at 902 and the “MKN45 5-day cytotoxicity (AUC)” value worked out at 2440.

B4: MBP007 (antibody, IgG1, V domains shown)
VH: QVQLVESGGGVVQPGRSLRLSCAASGIYFSSHGMHWVRQAPGKGLEWVTFISYDGSYKSYVDSVKGRFTISRDNSKNTLYLQMNSLRAEDTAVYYCATGLTGTGANDIWGQGTMVTVSS
VL: EIVLTQSPGTLSLSPGERATLSCRASQSVSSSYLAWYQQKPGQAPRLLIYGASSRATGIPDRFSGSGSGTDFTLTISRLEPEDFAVYYCQQNKPSPYTFGQGTKLEIK
For the molecule B4, in assay [1], the Kd was 21.5 nM, the koff was found to be 0.00171 s⁻¹ and the kon was 79600 M⁻¹ s⁻¹. Also, in the assay with human CEACAM5 on cells, the “Ls174T 5-day cytotoxicity (AUC)” value worked out at 834 and the “MKN45 5-day cytotoxicity (AUC)” value is 2070.

B5: MBP005 (antibody, V domains shown)
VH: QVQLVESGGGVVQPGRSLRLSCAASGIYFSSHGMHWVRQAPGKGLEWVTFISYDGSYKSYVDSVKGRFTISRDNSKNTLYLQMNSLRAEDTAVYYCATGLTGTGAFDIWGQGTMVTVSS
VL: not shown
B5: in the assay with human CEACAM5 on cells, the “Ls174T 5-day cytotoxicity (AUC)” value was 964 and the “MKN45 5-day cytotoxicity (AUC)” value stood at 2350.

B6: MBP011 (antibody, IgG1, V domains shown)
VH: QVQLVESGGGVVQPGRSLRLSCAASGITFSSHGMHWVRQAPGKGLEWVTFISYDGSIKSYVDSVKGRFTISRDNSKNTLYLQMNSLRAEDTAVYYCATGLTGTGAFDIWGQGTMVTVSS
VL: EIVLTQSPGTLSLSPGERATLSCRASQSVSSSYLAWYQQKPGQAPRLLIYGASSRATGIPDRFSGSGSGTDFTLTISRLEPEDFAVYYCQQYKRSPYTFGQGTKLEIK
Regarding B6, in assay [1], the Kd is 14.2 nM, the off-rate constant (koff) was found to be 0.000671 s⁻¹ and the kon was 47100 M⁻¹ s⁻¹. For the same molecule, in the assay with human CEACAM5 on cells, the “Ls174T 5-day cytotoxicity (AUC)” value worked out at 939 and the “MKN45 5-day cytotoxicity (AUC)” value was 1770.

B7: MBP008 (antibody, IgG1, V domains shown)
VH: QVQLVESGGGVVQPGRSLRLSCAASGITFSSHGMHWVRQAPGKGLEWVTFISYDGSYKSYVDSVKGRFTISRDNSKNTLYLQMNSLRAEDTAVYYCATGLTGTNALDIWGQGTMVTVSS
VL: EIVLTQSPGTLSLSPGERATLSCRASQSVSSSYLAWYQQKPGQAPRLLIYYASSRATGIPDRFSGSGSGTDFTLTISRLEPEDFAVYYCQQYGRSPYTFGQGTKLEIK
Turning to B7, in assay [1], the Kd worked out at 5.91 nM, the koff turned out to be 0.000527 s⁻¹ and the kon came to 89200 M⁻¹ s⁻¹. Moreover, in the assay with human CEACAM5 on cells, the “Ls174T 5-day cytotoxicity (AUC)” value stood at 1140 and the “MKN45 5-day cytotoxicity (AUC)” value was found to be 2200.

B8: MBP010 (antibody, IgG1, V domains shown)
VH: QVQLVESGGGVVQPGRSLRLSCAASGITFSSHGMHWVRQAPGKGLEWVTFISYDSSYKSYVDSVKGRFTISRDNSKNTLYLQMNSLRAEDTAVYYCATGLTGTGAFDIWGQGTMVTVSS
VL: EIVLTQSPGTLSLSPGERATLSCRASQSVSSSYLAWYQQKPGQAPRLLIYGASSRATGIPDRFSGSGSGTDFTLTISRLEPEDFAVYYCQQNKRSPYTFGQGTKLEIK
On to B8, for which, in assay [1], the Kd is 20.4 nM, the koff was found to be 0.00102 s⁻¹ and the kon stood at 50000 M⁻¹ s⁻¹. Besides, in the assay with human CEACAM5 on cells, the “Ls174T 5-day cytotoxicity (AUC)” value was 910 and the “MKN45 5-day cytotoxicity (AUC)” value stood at 1360.

Usually Kd stands for the free concentration of one partner at which half of the binding sites on the other are occupied at equilibrium, for simple one-to-one binding. One may read the koff as the first-order rate constant of dissociation. Broadly, the kon is the second-order rate constant of association.
